Test results published in the supplement of paper PMC10598134.
± gives the standard deviation.

Experiment: collision cross section of modified peptide (TIMS, N2, iRT-aligned); higher = larger / more extended gas-phase ion
Experimental: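 1/K0 was aligned run-wise to spiked iRT peptides and converted to CCS in N2 (Mason-Schamp). Values are the mean of 1-3 technical replicates for the most abundant feature at each charge state.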

[1] = charge state: 2, modification: hydroxyisobutyryl
[2] = charge state: 3, modification: hydroxyisobutyryl
[3] = charge state: 2, modification: Glutarylation
[4] = charge state: 2, modification: Hydroxyproline
[5] = charge state: 2, modification: GlyGly (K)
[6] = charge state: 3, modification: GlyGly (K)
[7] = charge state: 2, modification: Butyryl
[8] = charge state: 2, modification: Phospho (Y)
[9] = charge state: 2, modification: Biotin
[10] = charge state: 2, modification: Propionyl
[11] = charge state: 2, modification: Crotonyl
[12] = charge state: 2, modification: Trimethyl (K)
[13] = charge state: 3, modification: Trimethyl (K)

LLRGVGGSHGR [_LLR(Citrullination (R))GVGGSHGR_]
collision cross section (charge state: 2, modification: Citrullination (R)): 372.77 ± 0.65 Å² | collision cross section (charge state: 3, modification: Citrullination (R)): 442.38 ± 1.8 Å²

AAQASDLEKIHLDEK [_AAQASDLEK(hydroxyisobutyryl)IHLDEK_]
collision cross section [1]: 466.52 ± 0.88 Å² | collision cross section [2]: 501.4 ± 2.8 Å²

LEQVEKELLR [_LEQVEK(Gluratylation)ELLR_]
collision cross section [3]: 392.7 ± 0.12 Å²

LTSLNVKYNNDK [_LTSLNVK(hydroxyisobutyryl)YNNDK_]
collision cross section [1]: 415.97 ± 0.31 Å²

PGPQPSAETTR [_PGP(Hydroxyproline)QPSAETTR_]
collision cross section [4]: 345.87 ± 0.25 Å²

LEKDYQPGITFIVVQK [_LEKDYQP(Hydroxyproline)GITFIVVQK_]
collision cross section [4]: 457.03 ± 0.32 Å² | collision cross section (charge state: 3, modification: Hydroxyproline): 487.95 ± 1.3 Å²

LQAAYAGDKADDIQK [_LQAAYAGDK(GlyGly (K))ADDIQK_]
collision cross section [5]: 455.93 ± 1.6 Å² | collision cross section [6]: 505.34 ± 0.35 Å²

LDEKENLSAK [_LDEK(Butyryl)ENLSAK_]
collision cross section [7]: 370.93 ± 0.84 Å²

DESFLGKLGGTLAR [_DESFLGK(Formyl)LGGTLAR_]
collision cross section (charge state: 2, modification: Formyl): 408.46 ± 1.1 Å²

VYIASSSGSTAIKK [_VYIASSSGSTAIK(hydroxyisobutyryl)K_]
collision cross section [1]: 417.04 ± 1.1 Å² | collision cross section [2]: 511.39 ± 2 Å²

YILIPASQQPK [_Y(Phospho (Y))ILIPASQQPK_]
collision cross section [8]: 405.41 ± 0.64 Å²

GTVPDDAVEALADSLGKK [_GTVPDDAVEALADSLGK(hydroxyisobutyryl)K_]
collision cross section [1]: 460.24 ± 0.81 Å² | collision cross section [2]: 537.74 ± 2.1 Å²

LDHLAEKFR [_LDHLAEK(Butyryl)FR_]
collision cross section [7]: 377.54 ± 1.3 Å² | collision cross section (charge state: 3, modification: Butyryl): 440.5 ± 3.8 Å²

LAEEENKAK [_LAEEENK(Biotin)AK_]
collision cross section [9]: 371.22 Å²

LLEQKTQESQK [_LLEQK(Biotin)TQESQK_]
collision cross section [9]: 419.49 ± 1.1 Å²

DKALPLEAEVAPVK [_DK(hydroxyisobutyryl)ALPLEAEVAPVK_]
collision cross section [1]: 422.26 ± 0.83 Å²

DAEAAEATAEGALKAEK [_DAEAAEATAEGALK(Dimethyl (K))AEK_]
collision cross section (charge state: 2, modification: Dimethyl (K)): 461.24 ± 1.8 Å² | collision cross section (charge state: 3, modification: Dimethyl (K)): 536.26 ± 0.61 Å²

LLIVSTTPYSEKDTK [_LLIVSTTPYSEK(Propionyl)DTK_]
collision cross section [10]: 452.01 Å²

DDSFLGKLGGTLAR [_DDSFLGK(GlyGly (K))LGGTLAR_]
collision cross section [5]: 434.49 ± 0.96 Å² | collision cross section [6]: 484.35 ± 1.9 Å²

GSLEKGSPEDK [_GSLEK(Crotonyl)GSPEDK_]
collision cross section [11]: 371.77 ± 0.26 Å²

HELQANCYEEVKDR [_HELQANCYEEVK(GlyGly (K))DR_]
collision cross section [6]: 529.53 ± 1.6 Å²

SKLLFSNTAAQK [_SK(Malonyl)LLFSNTAAQK_]
collision cross section (charge state: 2, modification: Malonyl): 394.73 ± 0.61 Å²

TVSKVDDFLANEAK [_TVSK(hydroxyisobutyryl)VDDFLANEAK_]
collision cross section [1]: 426.08 ± 0.56 Å²

DSSPTTNSKLSALQR [_DSSPTTNSK(Gluratylation)LSALQR_]
collision cross section [3]: 431.44 ± 1.5 Å² | collision cross section (charge state: 3, modification: Glutarylation): 500.2 ± 1 Å²

VYIASSSGSTAIKK [_VYIASSSGSTAIK(GlyGly (K))K_]
collision cross section [5]: 437.45 ± 1.4 Å² | collision cross section [6]: 498.73 ± 3.9 Å²

ITGKNQVTATK [_ITGK(Acetyl (K))NQVTATK_]
collision cross section (charge state: 2, modification: Acetyl (K)): 365.02 ± 0.94 Å²

TLQKQSVVYGGK [_TLQK(Gluratylation)QSVVYGGK_]
collision cross section [3]: 399.42 ± 0.6 Å²

LEKTIDDLEEK [_LEK(Trimethyl (K))TIDDLEEK_]
collision cross section [12]: 402.76 ± 0.62 Å² | collision cross section [13]: 468.63 ± 1.5 Å²

DAEAAEATAEGALKAEK [_DAEAAEATAEGALK(Propionyl)AEK_]
collision cross section [10]: 451.16 ± 23 Å²

AYGELPEHAK [_AY(Phospho (Y))GELPEHAK_]
collision cross section [8]: 362.96 ± 0.74 Å² | collision cross section (charge state: 3, modification: Phospho (Y)): 450.05 Å²

DESFLGKLGGTLAR [_DESFLGK(Crotonyl)LGGTLAR_]
collision cross section [11]: 415.33 ± 0.28 Å² | collision cross section (charge state: 3, modification: Crotonyl): 492.01 Å²

VFSIISSEKELK [_VFSIISSEK(Trimethyl (K))ELK_]
collision cross section [12]: 421.37 ± 1.1 Å² | collision cross section [13]: 454.68 ± 1.8 Å²

SALAAAQTQVAEYK [_S(HexNAc (ST))ALAAAQTQVAEYK_]
collision cross section (charge state: 2, modification: HexNAc (ST)): 431.97 ± 0.62 Å²
